Reference: publication PMC8588562, “Layer-by-Layer Encapsulation of Herbicide-Degrading Bacteria for Improved Surface Properties and Compatibility in Soils” (Polymers, 2021)

Tested on: CCNc1nc(Cl)nc(NC(C)C)n1
Assay: cells, lysate or membranes
Conditions: apparent, whole uncoated E. coli cells (free cells), PBS (0.1 M, pH 7.4), room temperature, 20 min, 2.5 mg/mL cells, ATZ 1-20 mg/L

Question: For “atrazine chlorohydrolase (AtzA) (Pseudomonas sp. ADP)”, which Km is on record?
Answer: Its Km is 89.12 ± 29.48 µM.
